In publication PMC8246471:

Target: PriA helicase (UniProt P17888 1-732)
Assay: ATPase DNA titration

PriA helicase, sequence (P17888 whole entry): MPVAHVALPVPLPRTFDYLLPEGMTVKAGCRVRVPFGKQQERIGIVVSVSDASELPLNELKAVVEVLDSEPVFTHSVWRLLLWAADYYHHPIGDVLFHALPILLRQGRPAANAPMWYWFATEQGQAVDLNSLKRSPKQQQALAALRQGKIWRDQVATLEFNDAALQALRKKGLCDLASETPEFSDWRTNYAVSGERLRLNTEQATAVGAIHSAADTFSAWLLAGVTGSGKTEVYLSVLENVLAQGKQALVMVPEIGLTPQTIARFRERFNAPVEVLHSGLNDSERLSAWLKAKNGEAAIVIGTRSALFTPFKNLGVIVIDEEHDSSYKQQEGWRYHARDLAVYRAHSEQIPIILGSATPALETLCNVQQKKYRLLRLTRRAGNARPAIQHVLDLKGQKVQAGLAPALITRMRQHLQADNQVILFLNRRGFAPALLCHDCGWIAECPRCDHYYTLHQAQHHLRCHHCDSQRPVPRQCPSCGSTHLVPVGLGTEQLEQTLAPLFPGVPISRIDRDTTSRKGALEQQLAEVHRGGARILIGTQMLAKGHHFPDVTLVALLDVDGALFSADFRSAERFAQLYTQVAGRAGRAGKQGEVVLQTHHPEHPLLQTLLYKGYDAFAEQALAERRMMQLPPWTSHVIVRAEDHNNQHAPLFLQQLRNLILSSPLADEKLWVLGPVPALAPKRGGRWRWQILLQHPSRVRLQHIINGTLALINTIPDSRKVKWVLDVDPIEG

B1: Fork 1 (mixed)
DNA 1: CTAGAGACGCTGCCGAATTCTGGCTTGGATCTGATGCTGTCTAGAGGCCTCCACTATGAAATCGCTGCA
DNA 2: CCGGGCTGCAGAGCTCATAGATCGATAGTCTCTAGACAGCATCAGATCCAAGCCAGAATTCGGCAGCGTCT
  apparent K (half saturation): 5.7 ± 0.7 nM
